Our source for the binding affinity ratio (IC50 of standard peptide / IC50 of test peptide), binding affinity ratio (IC50 of the standard peptide / IC50 of the test peptide) and binding affinity ratio (relative to standard peptide) values is patent US20070020327A1.

The target in the first assay is HLA-A*2401 (human). Kind of assay: competitive inhibition of 125I-labelled standard peptide binding to purified HLA, gel filtration.
Conditions: not given
For “PAP peptide … (position 183, 9 amino acids)”, the binding affinity ratio (IC50 of standard peptide / IC50 of test peptide) is 0.11.

Consider “PAP peptide … (position 309, 10 amino acids)”, for which the binding affinity ratio (IC50 of standard peptide / IC50 of test peptide) was determined as 0.024. As to “PSM peptide … (position 178, 9 amino acids)”, the binding affinity ratio (IC50 of standard peptide / IC50 of test peptide) was determined as 0.77.

Take “PSM peptide … (position 638, 9 amino acids)”: the binding affinity ratio (IC50 of standard peptide / IC50 of test peptide) stood at 0.0001.

Another assay concerns the target HLA-A*2401 (human). Kind of assay: competition with a 125I-labelled standard peptide for purified HLA, gel filtration.
Conditions: not given
Take “PAP peptide … (position 41, 10 amino acids)”: the binding affinity ratio (IC50 of the standard peptide / IC50 of the test peptide) was found to be 0.0005. The same measure, in the same setting: with “PSA peptide … (position 2, 9 amino acids)” the figure was 2.1; with “PSA peptide … (position 2, 10 amino acids)”, 0.0062. Regarding “PSA peptide … (position 9, 9 amino acids)”, the binding affinity ratio (IC50 of the standard peptide / IC50 of the test peptide) was found to be 0.11. Same read-out and setting: next, “PSA peptide … (position 9, 10 amino acids)”: 0.36. Same read-out and setting: next, “PSM peptide … (position 624, 10 amino acids)”: 3.2.

For the next assay, the target named is HLA-A*2401 (human). Kind of assay: competition with 125I-labeled probe peptide for purified HLA, gel filtration. Conditions: scale: ratio.
As for “PAP peptide … (position 83, 10 amino acids)”, the binding affinity ratio (relative to standard peptide) stood at 0.0067.

On to “PSA peptide … (position 98, 9 amino acids)”, for which the binding affinity ratio (relative to standard peptide) was determined as 0.0001. Same read-out and setting: next, “PSM peptide … (position 621, 9 amino acids)”: 0.001.

The target in a further assay is HLA-A*2401 (human). Kind of assay: competition with a 125I-labelled standard peptide for purified HLA class I, bound and free peptide separated by gel filtration.
Conditions: not given
As for “Kallikrein (hK2) peptide …, position 156, 10 amino acids”, the binding affinity ratio (IC50 of the standard peptide / IC50 of the test peptide) came to 0.0001.

In the case of “Kallikrein (hK2) peptide …, position 248, 10 amino acids”, the binding affinity ratio (IC50 of the standard peptide / IC50 of the test peptide) turned out to be 0.055. The same measure, in the same setting: with “PSA peptide …, position 152, 10 amino acids” the figure was 0.0001; with “PSA peptide …, position 244, 10 amino acids”, 0.055. For the substance “PSM peptide …, position 409, 10 amino acids”, the binding affinity ratio (IC50 of the standard peptide / IC50 of the test peptide) turned out to be 0.054.

For another assay, the target named is HLA-A*2401 (human). Description: competition with 125I-labelled standard peptide for purified HLA, gel filtration; relative binding.
Conditions: not given
Regarding … (PAP, position 96) (peptide), the binding affinity ratio (IC50 of standard peptide / IC50 of test peptide) turned out to be 0.26. Same read-out and setting: with … (PSA, position 54) (peptide) the figure was 0.0007. With … (PSA, position 224) (peptide), the binding affinity ratio (IC50 of standard peptide / IC50 of test peptide) was 0.0001. On to … (PSM, position 178) (peptide), for which the binding affinity ratio (IC50 of standard peptide / IC50 of test peptide) turned out to be 0.77. Take … (PSM, position 624) (peptide): the binding affinity ratio (IC50 of standard peptide / IC50 of test peptide) was 3.2.

The target in the next assay is HLA-A*2401 (human). Description: inhibition of binding of a 125I-labelled standard peptide to purified HLA, gel filtration.
Conditions: not given
As to “PAP peptide … (position 22, 10 amino acids)”, the binding affinity ratio (IC50 of the standard peptide / IC50 of the test peptide) was determined as 0.0045. With “PAP peptide … (position 123, 9 amino acids)”, the binding affinity ratio (IC50 of the standard peptide / IC50 of the test peptide) amounted to 0.0033. Consider “PAP peptide … (position 123, 10 amino acids)”, for which the binding affinity ratio (IC50 of the standard peptide / IC50 of the test peptide) stood at 0.014. As for “PAP peptide … (position 205, 9 amino acids)”, the binding affinity ratio (IC50 of the standard peptide / IC50 of the test peptide) was determined as 0.0024.

As to “PSA peptide … (position 190, 9 amino acids)”, the binding affinity ratio (IC50 of the standard peptide / IC50 of the test peptide) came to 0.031. On the same count and under the same terms, with “PSM peptide … (position 606, 9 amino acids)” the figure was 12.

The target of another assay is HLA-A*2401 molecule, purified HLA class I (human). Description: competition with 125I-labelled probe peptide for purified HLA, gel filtration; relative binding.
Conditions: not given
For the substance “PAP peptide … (position 62, 9 amino acids)”, the binding affinity ratio (IC50 of the standard peptide / IC50 of the test peptide) is 0.0013. Turning to “PAP peptide … (position 96, 9 amino acids)”, the binding affinity ratio (IC50 of the standard peptide / IC50 of the test peptide) is 0.26. “PSA peptide … (position 224, 9 amino acids)”: the binding affinity ratio (IC50 of the standard peptide / IC50 of the test peptide) was 0.0001.

The target of the next assay is HLA-A*2401 (human). Kind of assay: competition with a 125I-labelled standard peptide for purified HLA, gel filtration; value relative to the standard peptide.
Conditions: not given
Turning to “PAP peptide … (position 302, 9 amino acids)”, the binding affinity ratio (IC50 of the standard peptide / IC50 of the test peptide) was 0.032.

The next assay concerns the target HLA-A*2401 (human). Kind of assay: competition with 125I-labelled standard peptide for purified HLA, gel filtration.
Conditions: not given
Consider “PAP peptide … (position 17, 9 amino acids)”, for which the binding affinity ratio (IC50 of the standard peptide / IC50 of the test peptide) is 0.0016.

On to “PAP peptide … (position 17, 10 amino acids)”, for which the binding affinity ratio (IC50 of the standard peptide / IC50 of the test peptide) was found to be 0.0007.

For the substance “PAP peptide … (position 23, 9 amino acids)”, the binding affinity ratio (IC50 of the standard peptide / IC50 of the test peptide) stood at 0.0017. In the case of “PSM peptide … (position 31, 9 amino acids)”, the binding affinity ratio (IC50 of the standard peptide / IC50 of the test peptide) came to 0.019. In the case of “PSM peptide … (position 32, 10 amino acids)”, the binding affinity ratio (IC50 of the standard peptide / IC50 of the test peptide) amounted to 0.0026. Still for that read-out and setting: with “PSM peptide … (position 565, 10 amino acids)” the figure was 1.1; with “PSM peptide … (position 582, 10 amino acids)”, 0.0002; with “… (PAP, position 70, 10 amino acids) (peptide)”, 0.0022. On to “… (PAP, position 213, 9 amino acids) (peptide)”, for which the binding affinity ratio (IC50 of the standard peptide / IC50 of the test peptide) worked out at 0.44. Consider “… (PAP, position 318, 9 amino acids) (peptide)”, for which the binding affinity ratio (IC50 of the standard peptide / IC50 of the test peptide) is 2.5. Regarding “… (PSA, position 96, 11 amino acids) (peptide)”, the binding affinity ratio (IC50 of the standard peptide / IC50 of the test peptide) amounted to 0.12. With “… (PSM, position 74, 10 amino acids) (peptide)”, the binding affinity ratio (IC50 of the standard peptide / IC50 of the test peptide) amounted to 0.23. Still for that read-out and setting: next, “… (PSM, position 227, 9 amino acids) (peptide)”: 0.44; “… (PSM, position 668, 9 amino acids) (peptide)”: 0.0075.
